Positions count from the first letter of the chain named. “And” between values parts separate entries of the source, which are not always exact repeats. Identical values can stand only once.
B1: 1K1782 murine anti CD20 monoclonal antibody (antibody, V domains shown)
VH: QVQLQQSGAELAKPGASVKMSCKASGYTFTSYWMHWVKQRPGQGLEWIGYITPSTGYTDYNKKFKDKATLTADRSSSTAYMHLSSLTSEDSAVYYCARSGPYFDVWGAGTTVTVSS
VL: DILLTQSPAILFVSPGERVSLSCRASQNIGTSIHWYQQRTNGSPRLLIKYASESFSGIPSRFSGSGSGTDFTLSINSVESEDIADYYCQQSNSWPFTFGSGTKLEIK
notes: also called m1782
B2: 1K1422 murine anti CD20 monoclonal antibody (antibody, V domains shown)
VH: QVQLQQPGAELVKPGASVKMSCRASGYTFTNYNMHWIKQTPGQGLEWIGAIYPGSGDTSYNRKFKGKATLTADTSSSTAYMQFSSLTSADSAVYYCARFTYYYGGTYGAMDYWGQGTSVTVSL
VL: QIVLTQSPPIMSASLGEEITLTCSASSRVSYMLWYQQKSGTSPKLLIYSTSNLASGVPSRFSGSGSGTFYSLTISSVEAEDAADYYCHQWTSNPCTFGGGTKLEIK
notes: also called m1422
B3: 1K1712 murine anti CD20 monoclonal antibody (antibody, V domains shown)
VH: QVQLQQPGAELVKPGASVKMSCKASGFTFTSYNLHWVKQTPGQGLEWIGAIYPGSGDTSYNQQFKGKATLTADKSSNTAYMQLNSLTSEDSAVYCCARSAMISTGNWYFDYWGQGTTLTVSS
VL: QIVLSQSPAILSASPGEKVTMTCRASSSVSYMDWYQQKPGSSPKPWIYATSNLASGVPARFSGSGSGTSYSLTISRVEAEDTATYYCQQWTFNPPTFGSGTKLEIK
notes: also called m1712
B4: 1K1736 murine anti CD20 monoclonal antibody (antibody, V domains shown)
VH: QVQLQQPGAELVKPGASVKMSCKASGYTFTTYNLHWVKQTPGQGLEWIGGIYPGNGDTSYNQKFKVKATLTADKSSNTAYMQLSSLTSEDSAVYYCARWIYYGNYEGTLDYWGQGTSVTVSS
VL: B3 VL with A13S, D33L, K44E, S64G, T82A, S99G
B5: 1K1402 murine anti CD20 monoclonal antibody (antibody, V domains shown)
VH: QVQLQQPGAELVKPGASVKMSCKASGFTFTSYNMHWVKQTPGQGLEWIGGIYPGNGDTSYNQKFKGKATLTADKSSSTAYMQLSSLTSEDSAVYYCARFYYYGSMGAMDYWGQGTSVTVSS
VL: B3 VL with D33H, S75T, T82A, S99A, I105L
notes: also called m1402
B6: 1K1228 murine anti CD20 monoclonal antibody (antibody, mouse IgG1, V domains shown)
VH: QVQLQQPGAELVKPGASVKVSCKASGFTFTSYNLHWVKQTPGQGLVWIGAIYPGNGDTSYNQKFRGKATLTADISSSTAYMQLSSLTSEDSAVYYCARYYYGYDAMDYWGQGTSVTVSS
VL: EIILTQSPTTMAASPGEKITITCSASSSISSYYLRWYQQKPGFSPKVLIYRTSNLASGVPARFSGSGSGTSYSLTIGTMEAEDVATYYCQQGNTVPLTFGSGTKLEIK
notes: also called m1228
B7: 1K0924 murine anti CD20 monoclonal antibody (antibody, mouse IgG2b, V domains shown)
VH: QVQLQQPGAELVKPGASVKMSCKASGYTFTSYNIHWVKQTPGQGLEWIGAIYPGNGDTSYNQKFKGKATLTSDKSSSTAYMQLSSLTSEDSAVYYCARMSTMITGFDYWGQGTTLTVSS
VL: B3 VL with D33H, K38R, S71Y, L72F, T82A, T91N, F92S, F97H, S99G
notes: also called m0924
B8: humanized 1K1791 antibody fv (FraL x VenH) (antibody, V domains shown)
VH: QIQLVQSGPELKKPGASVKISCKASGYTFTNFGVNWVKQAPGKGLKWMGWINTYTGEPSYADDFKGRFAFSLDASVSTAYLQISSLKAEDTSTYFCTRRTNYYGTSYYYAMDYWGQGTTVTVSS
VL: STVMTQSPSFLSASVGDRVTITCKASQSVSNDVAWYQQKPGQSPKVLIYFASNRYTGVPDRFSGSGYGTDFTLTISSLQAEDVAVYFCQQDYSSPLTFGAGTKLEIK
notes: Kappa, gamma 1 construct; also called hz1791 fv; Fv010
B9: humanized 1K1791 antibody ff (FraL x FraH) (antibody, V domains shown)
VH: B8 VH with P9S, I20V, V76A, T91M, S92A
VL: B8 VL
notes: Kappa, gamma 1 construct; also called hz1791 ff; Ff019
B10: humanized 1K1791 antibody ss (SdrL x SdrH) (antibody, V domains shown)
VH: B8 VH with P9S, I20V, K38R, D62Q, D63G, K65T, S92A
VL: STVMTQSPDSLAVSLGERATINCKSSQSNSNDVAWYQQKPGQSPKVLIYFASNRYSGVPDRFSGSGYGTDFTLTISSLQAEDVAVYFCQQDYSSPLTFGAGTKLEIK
notes: Kappa, gamma 1 construct; also called hz1791 ss; Ss020
B11: humanized 1K1791 antibody sf (SdrL x FraH) (antibody, V domains shown)
VH: B8 VH with P9S, I20V, V76A, T91M, S92A
VL: B10 VL
notes: Kappa, gamma 1 construct; also called hz1791 sf; Sf043
B12: humanized 1K1791 antibody vv (VenL x VenH) (antibody, V domains shown)
VH: B8 VH
VL: B10 VL with A19V, S25A, N29V, S56T, L73F, L78V, I106L
notes: Kappa, gamma 1 construct; also called hz1791 vv; Vv018
B13: humanized 1K1791 antibody vs (VenL x SdrH) (antibody, V domains shown)
VH: B8 VH with P9S, I20V, K38R, D62Q, D63G, K65T, S92A
VL: B10 VL with A19V, S25A, N29V, S56T, L73F, L78V, I106L
notes: Kappa, gamma 1 construct; also called hz1791 vs; Vs006
B14: humanized 1K1791 antibody vf (VenL x FraH) (antibody, V domains shown)
VH: B8 VH with P9S, I20V, V76A, T91M, S92A
VL: B10 VL with A19V, S25A, N29V, S56T, L73F, L78V, I106L
notes: Kappa, gamma 1 construct; also called hz1791 vf; Vf029
B15: humanized 1K1791 antibody va (VenL x AbbH) (antibody, V domains shown)
VH: B8 VH with P9S, I20V, K38R, K46E, D62Q, D63G, K65T, A69V, S92A
VL: B10 VL with A19V, S25A, N29V, S56T, L73F, L78V, I106L
notes: Kappa, gamma 1 construct; also called hz1791 va; Va016
B16: humanized 1K1791 antibody sv (SdrL x VenH) (antibody, V domains shown)
VH: B8 VH
VL: B10 VL
notes: Kappa, gamma 1 construct; also called hz1791 sv; Sv015

Molecular target: T1, human CD20 antigen (human, UniProt P11836 1-297)
T1 sequence (looked up): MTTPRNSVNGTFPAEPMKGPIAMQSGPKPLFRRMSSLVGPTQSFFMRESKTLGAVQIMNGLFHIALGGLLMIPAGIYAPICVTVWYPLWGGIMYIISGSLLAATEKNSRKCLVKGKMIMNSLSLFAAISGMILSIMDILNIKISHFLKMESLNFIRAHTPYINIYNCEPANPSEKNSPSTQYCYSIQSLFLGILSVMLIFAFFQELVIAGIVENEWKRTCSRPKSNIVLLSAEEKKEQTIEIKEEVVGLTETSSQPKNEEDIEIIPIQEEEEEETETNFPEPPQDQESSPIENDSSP
Assay: cell-based or functional assay

| Binder | Cell growth inhibiting test on Raji cells, Absorption (492 nm) [absorbance 492 nm] |
| --- | --- |
| B1 | 2.6 |
| B2 | 1.77 |
| B3 | 2.33 |
| B4 | 2.24 |
| B5 | 2.54 |

Molecular target: T1, human CD20 antigen
Assay: cell-based or functional assay
Remark: another data set of the same source

| Binder | Capacity to Induce Apoptosis (Raji cells) |
| --- | --- |
| B6 | 30 |
| B1 | 30 |
| B2 | 130 |
| B7 | 60 |
| B3 | 50 |
| B4 | 50 |
| B5 | 30 |

Molecular target: T1, human CD20 antigen
Assay: cell-based or functional assay
Remark: another data set of the same source

| Binder | CDC (10 ug/ml), RAJI | CDC (10 ug/ml), RC-K8 | CDC (10 ug/ml), SUDHL4 | CDC (10 ug/ml), WIL2NS |
| --- | --- | --- | --- | --- |
| B8 | 99 relative, c2B8 = 100 | 498 relative, c2B8 = 100 | 120 relative, c2B8 = 100 | 172 relative, c2B8 = 100 |
| B9 | 98 relative, c2B8 = 100 | 530 relative, c2B8 = 100 | 121 relative, c2B8 = 100 | 203 relative, c2B8 = 100 |
| B10 | 73 relative, c2B8 = 100 | 108 relative, c2B8 = 100 | 61 relative, c2B8 = 100 | 120 relative, c2B8 = 100 |
| B11 | 78 relative, c2B8 = 100 | 713 relative, c2B8 = 100 | 111 relative, c2B8 = 100 | 295 relative, c2B8 = 100 |

Molecular target: T1, human CD20 antigen
Assay: cell-based or functional assay
Remark: another data set of the same source

| Binder | Apoptosis (5 ug/ml), DHL4 | Apoptosis (5 ug/ml), RAJI | Apoptosis (5 ug/ml), RCK8 | Apoptosis (5 ug/ml), Wil2-NS |
| --- | --- | --- | --- | --- |
| B8 | 65 relative, m2B8 = 100 | 88 relative, m2B8 = 100 | 50 relative, m2B8 = 100 | 49 relative, m2B8 = 100 |
| B9 | 96 relative, m2B8 = 100 | 84 relative, m2B8 = 100 | 47 relative, m2B8 = 100 | 49 relative, m2B8 = 100 |
| B10 | 133 relative, m2B8 = 100 | 202 relative, m2B8 = 100 | 92 relative, m2B8 = 100 | 108 relative, m2B8 = 100 |
| B11 | 143 relative, m2B8 = 100 | 205 relative, m2B8 = 100 | 93 relative, m2B8 = 100 | 100 relative, m2B8 = 100 |

Molecular target: T1, human CD20 antigen
Assay: Scatchard analysis on Raji cells, FITC anti human Fc secondary (Example 3)
Protocol: (§1) The reaction solution was 1% BSA-PBS solution with a cell number of 5×10⁶ cells and was injected into a 1.5 ml tube to a final volume of 100 μl. Three samples for each test antibody were prepared and four tubes to which antibody was not added were prepared as samples for background calculations.
(§2) After the detecting step, an image was digitized using image analysis software Image Quant (Amersham Bioscience) and analyzed using Excel (Microsoft). Average values for the same test antibodies were calculated and the values for background calculation samples (when only reacting a cell with a FITC-labeled secondary antibody) were subtracted from the test antibody values. The background values derived for the FITC-labeled secondary antibody binding non-specifically to cells, the PBS solution and the plate are omitted. At the same time, a standard curve was prepared by measuring the amount of fluorescence of only FITC-labeled secondary antibodies at amounts of 0, 12.5, 25, 50, 75, 100, 125, and 150 ng per 100 μl. In this manner, the number of moles of secondary antibody binding to cells was calculated. Assuming that each primary antibody and the FITC-labeled secondary antibody react at a ratio of […], the amount of cell-bound primary antibody was calculated. Primary antibody in suspension was calculated by subtracting the bound amount from the added amount. Scatchard analysis was performed using these values in order to calculate a dissociation constant Kd.

| Binder | Kd |
| --- | --- |
| B8 | 7.17 nM and 7.25 nM |
| B9 | 8.5 nM and 7.81 nM |
| B12 | 7.14 nM and 7.01 nM |
| B13 | 8.8 nM and 11.9 nM |
| B10 | 24.4 nM and 21.8 nM |
| B14 | 7.78 nM and 7.79 nM |
| B15 | 13.1 nM and 7.5 nM |
| B11 | 11.6 nM and 13.8 nM |
| B16 | 14.3 nM and 10.8 nM |

Molecular target: T1, human CD20 antigen
Assay: Scatchard analysis on Raji cells, FITC secondary antibody fluorescence (Example 2)
Protocol: The mixture was shaken for one hour at room temperature while shielding against light and primary antibodies binding to cells were detected. After the reaction, the mixture was centrifuged at 3,000 rpm for three minutes and the cells were recovered. The cells were suspended in 200 μl of PBS to remove unreacted FITC-labeled anti murine IgG (H&L) antibody remaining on the cell surface and then centrifuged at 3,000 rpm for three minutes to remove the supernatant. This operation was repeated twice.
After the detection step, the image was digitized using image analysis software Image Quant (Amersham Bioscience) and analyzed using Excel (Microsoft). Background values for the plate, the PBS solution and FITC-labeled secondary antibody displaying non-specific binding to cells were determined. Then a value for the reaction only between the cells and the FITC-labeled secondary antibodies was obtained. Average values for those four points were subtracted from the fluorescent intensity value for each sample in order to obtain the amount of fluorescence of cell-conjugated FITC-labeled secondary antibody. A standard curve was prepared by measuring the amount of fluorescence at various concentrations of control cell-conjugated FITC-labeled secondary antibodies. Thus the amount of cell-conjugated secondary antibody (number of moles or weight) was calculated. The amount of cell-conjugated primary antibody was calculated assuming that each primary antibody and the FITC-labeled secondary antibody react at a ratio of 1:2. Primary antibody in suspension was calculated by subtracting the cell-conjugated amount from the added amount. When calculating the antibody concentration as a molar concentration, the molecular weight of the monoclonal was taken to be 150,000.
Scatchard analysis was used to calculate the antigen number and dissociation constant (Kd value) refer to Scatchard, G.; Ann. N.Y. Acad.

| Binder | Kd [nM] |
| --- | --- |
| B6 | 0.26 |
| B1 | 0.4 |
| B2 | 3.39 |
| B7 | 1.35 |
| B3 | 0.84 |
| B4 | 0.54 |
| B5 | 0.78 |

Molecular target: T1, human CD20 antigen
Assay: Scatchard analysis on Raji cells (Example 3), average over the clones of the construct
Protocol: as §1, §2

| Binder | Kd [nM] |
| --- | --- |
| B8 | 7.21 |
| B9 | 8.15 |
| B12 | 7.07 |
| B13 | 10.3 |
| B10 | 23.1 |
| B14 | 7.78 |
| B15 | 10.3 |
| B11 | 12.7 |
| B16 | 12.6 |

From patent US20090203886A1 (OSAKA UNIVERSITY, published 2009)
